Experimental data taken from patent US20050085426A1, “Acid-sensitive compounds, preparation and use thereof” (priority 2000, published 2005).

Columns and labels:
[1] = tested on: control cationic lipid/DNA particles; assay: Colloidal stabilization of DNA/control cationic lipid particles, hydrodynamic diameter; format: physicochemical; details: as nonionic surfactant for nucleolipid particles
Excerpt: In the present example, the cationic lipid used is that already used in examples 7 and 8 and described in the publication WO 97/18185 under the formula: H2N—(CH2)3—NH—(CH2)4—NH—(CH2)3—NH—CH2—CO-Gly-N[(CH2)17—CH3]2 (control cationic lipid).
Compounds C and D prepared in example 5 are used as acid-sensitive pegoylated lipids. As controls, there are used BRIJ 700 (SIGMA) and the pegoylated lipid of formula: [drawing 27] which are non-acid-sensitive analogs of compounds C and D, respectively, and which are known as nonionic surfactants (see for example the publication WO 98/34648). The two controls are used at 10 g/l in water.
(§1) All these samples have a control cationic lipid/DNA ratio of 1.5 (in nmol of lipid per μg of DNA) and contain increasing quantities of pegoylated lipid (expressed as polymer/DNA weight/weight ratio).
The measurement of the hydrodynamic diameter is made with a Coulter N4Plus apparatus using plastic cuvettes (four transparent sides) filled with 800 μl of the different solutions containing 0.01 mg of DNA/ml, the measurement being carried out at 90° in unimodal mode.

[2] = tested on: DNA/control cationic lipid nucleolipid complexes; assay: Size of nucleolipid particles as a function of pH and time (stability of acid-sensitive compounds); format: physicochemical; details: for sensitivity at acidic pH values: pH 4, pH 5, pH 6; for stability at physiological pH: pH 7.4
Procedure: To this effect, the variation of the size of nucleolipid complexes (identical to those used in examples 9 and 10) is measured as a function of the pH and time, for various acid-sensitive pegoylated lipids, which makes it possible to cover different ranges of sensitivity.

DNA = assay: Ethidium bromide fluorescence test of DNA compaction and release at pH 5; format: physicochemical; details: for variation in fluorescence over time (DNA not completely compacted): 0.4 nmol lipid/μg of DNA
Excerpt: This can be easily shown by a fluorescence test with ethidium bromide (EtBr): the absence of fluorescence reflects the absence of free DNA, which means that the DNA is compacted.
In the text which follows, the two forms Syn and Trans of the acid-sensitive compound A as prepared in example 3 were used and the non-acid-sensitive analog described in the publication WO 97/18185, and which has the formula: H2N—(CH2)3—NH—(CH2)4—NH—(CH2)3—NH—CH2—CO-Gly-N[(CH2)17—CH3]2 was used as control. This non-acid-sensitive analog is called in the text which follows “control cationic lipid”.
The DNA is brought into contact with increasing quantities of control cationic lipid or of acid-sensitive compound A Syn or Trans, by mixing an equal volume of lipid solutions of different titers with the DNA solutions. Samples of 800 μl of DNA complexes having a concentration of 10 μg/ml are thus prepared in a sodium chloride solution at 150 mM with increasing quantities of control cationic lipid or of acid-sensitive compound A Syn or Trans.
At time t=0, 200 μl of buffer having a concentration of 0.1 mol/l at pH 5 are added to these samples and the samples are stored in an oven at 37° C. The fluorescence with ethidium bromide (EtBr) is measured over time (measurement at 20° C.) using a FluoroMax-2 (Jobin Yvon-Spex), with excitation and emission wavelengths of 260 nm and 590 nm respectively. The slit widths for excitation and for emission are set at 5 nm. The fluorescence value is recorded after addition of 3 μl of ethidium bromide at 1 g/l per ml of DNA/cationic lipid or DNA/acid-sensitive compound solution (at 0.01 mg of DNA/ml).

HeLa cells = assay: In vitro transfection of HeLa cells, luciferase activity; format: cell-based, human; details: for transfection activity: 1.0 to 10.0 nmol of lipid/μg of DNA; for effect of the presence of serum on transfection: with serum (10% FCS)
Procedure: This study was carried out at 4 different charge ratios: 1.0 or 4.0 or 6.0 or 10.0 nmol of lipid/μg of DNA. Each of these conditions was tested with and without fetal calf serum (“+ or − Serum”)
Culture of the cells: HeLa cells (American type Culture Collection (ATCC) Rockville, Md., USA) derived from a human cervical epithelium carcinoma, are cultured in the presence of a medium of the MEM (“minimum essential medium”) type with addition of 2 mM L-glutamine, 50 units/ml of penicillin, and 50 units/ml of streptomycin. The medium and the additives are obtained from Gibco/BRL life Technologies (Gaithersburg, Md., USA). The cells are cultured in flasks at 37° C. and at 5% carbon dioxide in an incubator.
Transfection: a day before the transfection, the HeLa cells are transferred into 24-well plates with a cell number of 30,000 to 50,000 per well. These dilutions represent approximately 80% confluence after 24 hours.
For the transfection, the cells are washed twice and incubated at 37° C. with 500 μl of medium with serum (10% FCS v/v) or without serum.
50 μl of complexes containing 0.5 μg of plasmid DNA are added to each well (the complexes are prepared at least 30 minutes before the addition to the well). After two hours at 37° C., the plates without serum are supplemented with 10% (v/v) of FCS (“Fetal Calf Serum”).
All the plates are placed for 36 hours at 37° C. and at 5% carbon dioxide.
Determination of the luciferase activity: Briefly, the transfected cells are washed twice with 500 μl of PBS (phosphate buffer) and then lysed with 250 μl of reagent (Promega cell culture lysis reagent, from the Luciferase Assay System kit).
An aliquot of 10 μl of supernatant of the lysate centrifuged (12,000×g) for 5 minutes at 4° C. is measured with the Wallac Victor2 luminometer (1420 Multilabel couter).
The luciferase activity is assayed by the emission of light in the presence of luciferin, of coenzyme A and of ATP for 10 seconds and expressed relative to 2000 treated cells. The luciferase activity is thus expressed as Relative Light Unit (“RLU”: “Relative light unit”) and normalized with the concentration of proteins in the sample obtained using a Pierce BCA kit (Rockford, Ill., USA).

[3] = tested on: control cationic lipid/DNA nucleolipid particles; assay: Size of nucleolipid particles as a function of time at pH 5; format: physicochemical; details: for aggregation of the particles after 4 hours: pH 5, 37° C.
Procedure: The acid-sensitive pegoylated lipid used in this example is the compound D prepared in example 5, as well as its non-acid-sensitive analog called “Analog D” in the preceding example and in the text which follows.
as §1
The size of the particles is measured as a function of time.

[4] = tested on: Balb/C mice carrying subcutaneous M109 tumors; assay: In vivo gene transfer of DNA/cationic lipid/DOPE complexes, CAT assay
Procedure: The cationic lipid of formula: [drawing 28] and the neutral lipid DOPE (obtained from Avanti Polar Lipids, Birmingham, Ala.) where it is dissolved in chloroform and then mixed in equimolar quantities.
Appropriate quantities of compound D were dissolved in chloroform and added to the mixture. The quantities of compound D used are given in mol % of the total quantity of lipid.
The organic solvent is then evaporated under an argon stream so that a thin lipid film forms at the bottom of the tube. This film is dried under vacuum for at least 1 hour and then rehydrated with a 20 mM HEPES buffer at pH 7.4 and 5% dextrose, at 4° C. for 2 hours. The lipid suspension thus obtained is heated at 50° C. for 30 minutes, and then sonicated for 5 minutes so as to form a homogeneous suspension of liposomes of about 100 nm.
The DNA used is plasmid DNA containing the CAT gene under the control of a CMV promoter.
Equivalent volumes of liposome suspension (in appropriate concentration) are rapidly added to a DNA solution while mixing rapidly and vigorously. Overall, 1 μg of DNA forms a complex with 5 nmol of cationic lipid. The complexes formed have a diameter of approximately 100 to 240 nm.
About 6 week old female Balb/C mice are used in all the experiments. Each mouse receives a subcutaneous injection with 10^6 M109 cells in the right flank. When the tumours reach a size of about 300 mm^3, the mice receive 200 μl of DNA/lipid complexes containing 50 μg of DNA, by intravenous injection. The tissues are removed 24 hours after injection and stored at −70° C. until used.
The tissues are homogenized using a “FastPrep Cell Disrupter FP120” apparatus (Bio 101/Savant). The samples are then centrifuged at 1 000 revolutions/minute for 5 minutes. The quantity of CAT transgene expressed is determined using a standard CAT ELISA procedure (Roche, Ind.).

variation in fluorescence over time (DNA not completely compacted) (DNA; pH 5, 37° C.)	Molecule	colloidal stabilizing power [1]	sensitivity at acidic pH values [2]	stability at physiological pH [2]	transfection activity (HeLa cells)	effect of the presence of serum on transfection (HeLa cells)	also measured
–	methoxy-(polyethylene glycol 5000)-(N-(2-octadecyloxy-[1,3]dioxolan-4-ylmethyl)amide [Compound C]	comparable to that of the stable nonionic surfactants	high sensitivity at acidic pH values	relatively stable at physiological pH	–	–	duration of stabilization of the nucleolipid particles ([2]; pH 6, 37° C.): at least 4 hours
no significant variation in fluorescence	CCCCCCCCCCCCCCCCCCN(CCCCCCCCCCCCCCCCCC)C(=O)CCCOC1OCC(CNC(=O)CNCCCNCCCCNCCCN)O1 (stereo not drawn) [Compound A Syn, 4-{4-[(2-{3-[4-(3-amino-propylamino)butylamino]propyl-amino}acetylamino)methyl]-[1,3]dioxolan-2-yloxy}-N,N-dioctadecylbutyramide tetraacetate]	–	–	–	high transfection activity	inhibition of transfection	release of the DNA over time (increase in fluorescence) (DNA; pH 5, 37° C., 1.7 and 6.0 nmol lipid/μg of DNA): release the DNA over time; time of release of DNA after the addition of acid (DNA; pH 5 and 37° C.): a few hours after the addition of acid
–	methoxy-(polyethylene glycol 5000)-N-(2-methyl-2-octadecyloxy-[1,3]dioxan-5-yl)amide [Compound E]	–	high sensitivity at acidic pH values	relatively stable at physiological pH	–	–	start of aggregation of the nucleolipid particles after the acidification ([2]; pH 6, 37° C.): about 1 hour
–	methoxy-(polyethylene glycol 5000)-N-{2-[17-(1,5-dimethylhexyl)-10,13-dimethyl-2,3,4,7,8,9,10,11,12,13,14,15,16,17-tetradecahydro-1H-cyclopenta[a]-phenanthren-3-yloxy]-[1,3]dioxolan-4-ylmethyl}amide [Compound D]	comparable to that of the stable nonionic surfactants	–	–	–	–	aggregation of the particles after 4 hours ([3]; pegoylated lipid/DNA ratio of 0.5): completely formed into aggregates; aggregation of the particles after 4 hours ([3]; pegoylated lipid/DNA ratio of 1): not at all or only slightly; colloidal stability of the particles at time t=0 ([3]; pH 5, t=0, regardless of the compound/DNA ratio): the same stability; increase of the gene transfer activity specific to the tumors relative to the lungs (factor) ([4]; M109 tumors versus lungs): 40; gene transfer in the tumors ([4]; M109 tumors, intravenous injection, 50 μg of DNA, 24 hours after injection, increasing quantity of pegoylated lipid): gene transfer does not appear to be affected in the tumors; transfection activity in the lungs ([4]; intravenous injection, 50 μg of DNA, tissues 24 hours after injection, increasing quantity of pegoylated lipid): the transfection activity is also inhibited in the lungs
no significant variation in fluorescence	CCCCCCCCCCCCCCCCCCN(CCCCCCCCCCCCCCCCCC)C(=O)CNC(=O)CNCCCNCCCCNCCCN [control cationic lipid, H2N—(CH2)3—NH—(CH2)4—NH—(CH2)3—NH—CH2—CO-Gly-N[(CH2)17—CH3]2, reference compound]	–	–	–	high transfection activity	inhibition of transfection	–
